Assays:
[1] = biological target: full length human MSR1 with a C-terminal Myc tag, on HEK293.Myc.hMSR1 cells (human) (UniProt P21757); assay: ECL cell binding, HEK293.Myc.hMSR1 cells, 11 nM
[2] = biological target: endogenously expressed human MSR1 on PMA-treated THP-1 cells (human) (UniProt P21757); assay: ECL cell binding, PMA-treated THP-1 cells, 11 nM
[3] = biological target: endogenously expressed human MSR1 on PMA-treated THP-1 cells (human) (UniProt P21757); assay: cell-based or functional assay
[4] = biological target: endogenously expressed human MSR1 on PMA-treated THP-1 cells (human) (UniProt P21757); assay: confocal imaging, differentiated THP-1 cells, Alexa 488 secondary
[5] = biological target: human MSR1 extracellular domain expressed with a N-terminal nonahistidine tag (human) (UniProt P21757); assay: competition ELISA, plate-coated His9-hMSR1; 1 µM control antibody, competitor ligand 10 nM Ox-LDL
[6] = biological target: human MSR1 extracellular domain expressed with a N-terminal nonahistidine tag (human) (UniProt P21757); assay: competition ELISA, plate-coated His9-hMSR1; 100 nM control antibody, competitor ligand Ac-LDL
[7] = biological target: human MSR1 extracellular domain expressed with a N-terminal nonahistidine tag (human) (UniProt P21757); assay: competition ELISA, plate-coated His9-hMSR1; 300 nM control antibody, competitor ligand biot-AGE-BSA

human MSR1 extracellular domain expressed with a N-terminal nonahistidine tag (human), sequence (P21757 other isoform, or with tags, fused parts or gaps): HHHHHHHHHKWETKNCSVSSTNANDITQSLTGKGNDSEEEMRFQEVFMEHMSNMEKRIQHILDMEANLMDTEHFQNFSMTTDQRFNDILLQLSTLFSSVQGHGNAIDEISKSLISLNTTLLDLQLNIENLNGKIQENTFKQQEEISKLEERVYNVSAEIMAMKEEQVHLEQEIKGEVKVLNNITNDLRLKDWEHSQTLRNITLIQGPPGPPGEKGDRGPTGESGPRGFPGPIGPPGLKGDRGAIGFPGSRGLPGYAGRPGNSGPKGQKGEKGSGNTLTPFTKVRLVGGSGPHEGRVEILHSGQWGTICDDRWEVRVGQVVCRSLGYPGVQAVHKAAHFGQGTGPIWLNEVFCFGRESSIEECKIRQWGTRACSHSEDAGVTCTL
endogenously expressed human MSR1 on PMA-treated THP-1 cells (human), sequence (P21757 whole entry, the tested form may be a part): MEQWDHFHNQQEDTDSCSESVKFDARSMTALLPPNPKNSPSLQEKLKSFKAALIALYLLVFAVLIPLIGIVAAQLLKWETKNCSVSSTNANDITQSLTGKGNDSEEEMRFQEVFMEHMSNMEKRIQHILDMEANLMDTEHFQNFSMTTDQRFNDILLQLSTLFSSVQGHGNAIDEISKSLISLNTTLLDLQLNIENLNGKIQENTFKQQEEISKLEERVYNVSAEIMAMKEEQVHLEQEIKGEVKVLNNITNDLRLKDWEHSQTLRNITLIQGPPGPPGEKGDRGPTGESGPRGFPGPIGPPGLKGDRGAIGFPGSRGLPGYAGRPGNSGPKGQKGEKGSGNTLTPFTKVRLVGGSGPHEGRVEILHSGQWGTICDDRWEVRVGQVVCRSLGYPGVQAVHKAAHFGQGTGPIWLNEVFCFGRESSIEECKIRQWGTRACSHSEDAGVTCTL
full length human MSR1 with a C-terminal Myc tag, on HEK293.Myc.hMSR1 cells (human), sequence (P21757 whole entry): as the sequence (P21757 whole entry, the tested form may be a part) above

Row | ratio of binding signal (RLU) to isotype control [1] [fold] | ratio of binding signal (RLU) to isotype control [2] [fold] | % Blocking [5] [%] | % Blocking [6] [%] | % Blocking [7] [%] | Substance | further results
1 | 1 | 1 |  |  |  | hIgG1 Isotype Control (antibody) | 
2 |  |  | 16 | -4 | 7 | mIgG1 isotype control (antibody) | 

Further lines, the substance ahead of its results:

Row | Substance | ratio of binding signal (RLU) to isotype control [1] [fold] | ratio of binding signal (RLU) to isotype control [2] [fold] | % Blocking [5] [%] | % Blocking [6] [%] | % Blocking [7] [%] | further results
3 | Isotype control (antibody) |  |  |  |  |  | Total Internalized RFU [3]: 1.7e+06 RFU; Total Binding at 4° C. (RFU) [4]: 186000 RFU; Total Binding at 37° C. (RFU) [4]: 1.09e+06 RFU
4 | hIgG1 isotype control (antibody) |  |  | 3 | -8 | 4 | 
5 | mIgG Isotype Control (antibody) | 1 | 1 |  |  |  | 

Source: patent US20190367631A1
